According to the supplement of paper PMC10724198:
± gives the standard deviation of the averaged measurements.

Test system: Saccharomyces cerevisiae
Assay: protein stability index of tFT-peptide fusion (C-terminal peptide) (PSI (0-1 scale)); higher = more stable (slower turnover)
Conditions: genetic background: wild type; temperature: 30 C
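Further: PSI is a weighted mean of sequencing reads over stability bins, variants kept only with over 10 reads, mCherry proximal and sfGFP distal, peptide attached via GGGS linker.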

| Sequence | protein stability index |
| --- | --- |
| RPTTPKCSSPKP | 0.753 ± 0.11 |
| FLCILTNGCCYQ | 0.765 ± 0.052 |
| GGRIRLLTYFGR | 0.601 ± 0.042 |
| VKEKRDLSNYNI | 0.677 ± 0.037 |
| QLPALPPLHSSP | 0.6982 ± 0.0022 |
| LHSIPLNPYLIA | 0.712 ± 0.16 |
| VAWTYDYTGVLR | 0.626 ± 0.037 |
| RTKIEIKNRENI | 0.774 ± 0.12 |
| LLAVLSPAAPLP | 0.696 ± 0.058 |
| VYGIAPPTRCFS | 0.649 ± 0.024 |
| PVGWRGGYVGGR | 0.666 ± 0.092 |
| EKKRAGEDGRGK | 0.673 ± 0.0081 |
| HVMLPFTGIGKF | 0.672 ± 0.06 |
| VQCSLWYARLIL | 0.513 ± 0.033 |
| PRPLTPDPPRPL | 0.693 ± 0.062 |
| LLIYIPLFEWAR | 0.526 ± 0.028 |
| ISRSLVDHQARP | 0.695 ± 0.045 |
| RIMFVGYPLDWL | 0.674 ± 0.041 |
| VGGVDMCGARVV | 0.754 ± 0.032 |
| TGRERLAEGDWR | 0.692 ± 0.019 |
| SVLVHSFRSVNV | 0.66 ± 0.002 |
| GRNFSHKKRGKY | 0.685 ± 0.03 |
| GYLFLGNMTRHN | 0.737 ± 0.016 |
| LHCKDWGHESRD | 0.6838 ± 0.0057 |
| LDRGPFADQAPH | 0.678 ± 0.012 |
| HKHDAVIIGREC | 0.7024 ± 0.0042 |

| Sequence | protein stability index |
| --- | --- |
| ADQVGRAVIIAS | 0.644 ± 0.0074 |
| GPGFRSGVELVW | 0.759 ± 0.069 |
| KILRRIFRNGGA | 0.615 ± 0.062 |
| GARHTALCCPMG | 0.623 ± 0.041 |
| SGGGRAECGEVR | 0.702 ± 0.021 |
| QYQDRHIDRSGR | 0.657 ± 0.078 |
| FVVSSLYSYSYR | 0.56 ± 0.015 |
| RLGVTVPLSGTV | 0.5342 ± 0.00099 |
| HVNGQWEANRRT | 0.697 ± 0.048 |
| GNKMYRSREGNC | 0.6709 ± 0.003 |
| RGGWRVTNKKNI | 0.645 ± 0.023 |
| FFVRVVGDLRWE | 0.583 ± 0.019 |
| ITIVVATRPPGA | 0.617 ± 0.013 |
| LFLTFYSPLSFT | 0.646 ± 0.022 |
| CPPSPFPPPLPR | 0.767 ± 0.094 |
| GSPRFSNGCEYF | 0.59 ± 0.026 |
| LSLTCLSSPPPA | 0.654 ± 0.034 |
| VMTRNERGQERK | 0.675 ± 0.038 |
| ECSFAGIWVDLG | 0.689 ± 0.047 |
| GVGGGSRGVCLG | 0.638 ± 0.094 |
| IRNGYVGNYKGN | 0.744 ± 0.025 |
| PPHHPPPTLFPA | 0.698 ± 0.076 |
| RQFRKKNTLKSE | 0.65 ± 0.1 |
| VWVAGGVLWVLG | 0.5433 ± 0.0042 |
| LSLGSSATLTFQ | 0.698 ± 0.03 |
| CWYRCLLSCLVL | 0.656 ± 0.033 |

| Sequence | protein stability index |
| --- | --- |
| FGDRGLGIIYFK | 0.7277 ± 0.0023 |
| RCRGTEGWLDSG | 0.63 ± 0.009 |
| VFGRGGRGGPLG | 0.647 ± 0.049 |
| VRYRSGLVFEGV | 0.747 ± 0.039 |
| VDVPAGPGGGAC | 0.641 ± 0.077 |
| VGVRGGRFWAGA | 0.682 ± 0.018 |
| ITLLYFAGVSVL | 0.513 ± 0.0074 |
| CCYCLTVCRWFT | 0.571 ± 0.038 |
| LRPKESQEYIHR | 0.652 ± 0.079 |
| RVCKALKNDNLI | 0.73 ± 0.07 |
| AGVVGRMGWGAT | 0.707 ± 0.041 |
| MSKTIEREGNMI | 0.735 ± 0.034 |
| RTWNSIESRKIK | 0.706 ± 0.074 |
| EVPLGLIRLPSV | 0.695 ± 0.06 |
| SPSLPPLPRSPR | 0.68 ± 0.053 |
| VLLLSPPLRPCP | 0.69 ± 0.024 |
| VWGVFASPVVYR | 0.712 ± 0.049 |
| GWVVGRGRLGVV | 0.655 ± 0.028 |
| ENMVLQKRGIKV | 0.5024 ± 0.0049 |
| DIRVFFNSREGN | 0.742 ± 0.022 |
| GVTNRQMAWCFS | 0.606 ± 0.071 |
| HRYRWPGLNSRL | 0.837 ± 0.12 |
| PAPPVFVPSLPL | 0.801 ± 0.029 |
| TGWWSPCRLDSS | 0.722 ± 0.024 |
| GTGMMGFFWIVA | 0.571 ± 0.069 |
| VVATRYGGCFRR | 0.669 ± 0.04 |

| Sequence | protein stability index |
| --- | --- |
| PVASGYTMWSCV | 0.693 ± 0.015 |
| PPPPLLPTPRPF | 0.682 ± 0.039 |
| CVTFHKGRVFLR | 0.609 ± 0.031 |
| RKGFMQRHDTLD | 0.6749 ± 0.0019 |
| MWAEWLCHGDRN | 0.742 ± 0.068 |
| EQRSKSHVLPPR | 0.737 ± 0.009 |
| PPPPANVSHHAP | 0.593 ± 0.073 |
| VVGSVQQSSDSC | 0.692 ± 0.07 |
| TAFGLMRQPCMG | 0.657 ± 0.052 |
| SSRELVDGVGIA | 0.763 ± 0.068 |
| PPPLRTHTGPPP | 0.678 ± 0.0069 |
| GLYTRLYIPRPC | 0.739 ± 0.033 |
| KKNKEKGEREKK | 0.615 ± 0.058 |
| PDVFIWIRPLLP | 0.6282 ± 0.0062 |
| VLVSSLSSSKFF | 0.647 ± 0.088 |
| PPPPPPPPPPRA | 0.723 ± 0.035 |
| LRLTTNTGCTIS | 0.611 ± 0.023 |
| CFGMMVFFHRVI | 0.534 ± 0.076 |
| RRNESHAGGRGP | 0.778 ± 0.07 |
| GRCVCVLFWHVS | 0.571 ± 0.0078 |
| GVRATRMGGGPL | 0.706 ± 0.015 |
| GVVGGGEDRWSV | 0.738 ± 0.032 |
| PPPIPLSPPLVL | 0.72 ± 0.014 |
